Our source for the Kd values is publication PMC5779224 (2017).

Sequences and labels used below:
B1: AnkB_AI-a peptide (aa 1623–1635) [human] / AnkB_MBD (AnkB ANK repeats only, aa 28–827) [human] (parent complex)
chain 1: HPPIVSEEDISVG
chain 2: KSDSNASFLRAARAGNLDKVVEYLKGGIDINTCNQNGLNALHLAAKEGHVGLVQELLGRGSSVDSATKKGNTALHIASLAGQAEVVKVLVKEGANINAQSQNGFTPLYMAAQENHIDVVKYLLENGANQSTATEDGFTPLAVALQQGHNQAVAILLENDTKGKVRLPALHIAARKDDTKSAALLLQNDHNADVQSKMMVNRTTESGFTPLHIAAHYGNVNVATLLLNRGAAVDFTARNGITPLHVASKRGNTNMVKLLLDRGGQIDAKTRDGLTPLHCAARSGHDQVVELLLERGAPLLARTKNGLSPLHMAAQGDHVECVKHLLQHKAPVDDVTLDYLTALHVAAHCGHYRVTKLLLDKRANPNARALNGFTPLHIACKKNRIKVMELLVKYGASIQAITESGLTPIHVAAFMGHLNIVLLLLQNGASPDVTNIRGETALHMAARAGQVEVVRCLLRNGALVDARAREEQTPLHIASRLGKTEIVQLLLQHMAHPDAATTNGYTPLHISAREGQVDVASVLLEAGAAHSLATKKGFTPLHVAAKYGSLDVAKLLLQRRAAADSAGKNGLTPLHVAAHYDNQKVALLLLEKGASPHATAKNGYTPLHIAAKKNQMQIASTLLNYGAETNIVTKQGVTPLHLASQEGHTDMVTLLLDKGANIHMSTKSGLTSLHLAAQEDKVNVADILTKHGADQDAHTKLGYTPLIVACHYGNVKMVNFLLKQGANVNAKTKNGYTPLHQAAQQGHTHIINVLLQHGAKPNATTANGNTALAIAKRLGYISVVDTLKVVTEEVTTTTTTI
B2: AnkB_AI-b (aa 865–896) [human] / AnkB 28–847 (MBD + partial AI-c) [human] (parent complex)
chain 1: EDLKELGDDSLPSSQFLDGMNYLRYSLEGGRS
chain 2: KSDSNASFLRAARAGNLDKVVEYLKGGIDINTCNQNGLNALHLAAKEGHVGLVQELLGRGSSVDSATKKGNTALHIASLAGQAEVVKVLVKEGANINAQSQNGFTPLYMAAQENHIDVVKYLLENGANQSTATEDGFTPLAVALQQGHNQAVAILLENDTKGKVRLPALHIAARKDDTKSAALLLQNDHNADVQSKMMVNRTTESGFTPLHIAAHYGNVNVATLLLNRGAAVDFTARNGITPLHVASKRGNTNMVKLLLDRGGQIDAKTRDGLTPLHCAARSGHDQVVELLLERGAPLLARTKNGLSPLHMAAQGDHVECVKHLLQHKAPVDDVTLDYLTALHVAAHCGHYRVTKLLLDKRANPNARALNGFTPLHIACKKNRIKVMELLVKYGASIQAITESGLTPIHVAAFMGHLNIVLLLLQNGASPDVTNIRGETALHMAARAGQVEVVRCLLRNGALVDARAREEQTPLHIASRLGKTEIVQLLLQHMAHPDAATTNGYTPLHISAREGQVDVASVLLEAGAAHSLATKKGFTPLHVAAKYGSLDVAKLLLQRRAAADSAGKNGLTPLHVAAHYDNQKVALLLLEKGASPHATAKNGYTPLHIAAKKNQMQIASTLLNYGAETNIVTKQGVTPLHLASQEGHTDMVTLLLDKGANIHMSTKSGLTSLHLAAQEDKVNVADILTKHGADQDAHTKLGYTPLIVACHYGNVKMVNFLLKQGANVNAKTKNGYTPLHQAAQQGHTHIINVLLQHGAKPNATTANGNTALAIAKRLGYISVVDTLKVVTEEVTTTTTTITEKHKLNVPETMTEVLDVSD
B3: AnkB_AI-c (aa 828–852) [human] / AnkB_MBD (AnkB ANK repeats only, aa 28–827) [human] (parent complex)
chain 1: TEKHKLNVPETMTEVLDVSDEEGDD
chain 2: B1 chain 2
B4: AnkG linker ΔAI-c (aa 861–920) [rat] / AnkG 38–855 (AnkG MBD-AI-c protein; MBD + partial AI-c) [rat] (parent complex)
chain 1: KASAPEKLSDGEYISDGEEGEDAITGDTDKYLGPQDLKELGDDSLPAEGYVGFSLGARSA
chain 2: KSDANASYLRAARAGHLEKALDYIKNGVDVNICNQNGLNALHLASKEGHVEVVSELLQREANVDAATKKGNTALHIASLAGQAEVVKVLVTNGANVNAQSQNGFTPLYMAAQENHLEVVRFLLDNGASQSLATEDGFTPLAVALQQGHDQVVSLLLENDTKGKVRLPALHIAARKDDTKAAALLLQNDTNADIESKMVVNRATESGFTPLHIAAHYGNINVATLLLNRAAAVDFTARNDITPLHVASKRGNANMVKLLLDRGAKIDAKTRDGLTPLHCGARSGHEQVVEMLLDRAAPILSKTKNGLSPLHMATQGDHLNCVQLLLQHNVPVDDVTNDYLTALHVAAHCGHYKVAKVLLDKKANPNAKALNGFTPLHIACKKNRIRVMELLLKHGASIQAVTESGLTPIHVAAFMGHVNIVSQLMHHGASPNTTNVRGETALHMAARSGQAEVVRYLVQDGAQVEAKAKDDQTPLHISARLGKADIVQQLLQQGASPNAATTSGYTPLHLSAREGHEDVAAFLLDHGASLSITTKKGFTPLHVAAKYGKLEVASLLLQKSASPDAAGKSGLTPLHVAAHYDNQKVALLLLDQGASPHAAAKNGYTPLHIAAKKNQMDIATSLLEYGADANAVTRQGIASVHLAAQEGHVDMVSLLLSRNANVNLSNKSGLTPLHLAAQEDRVNVAEVLVNQGAHVDAQTKMGYTPLHVGCHYGNIKIVNFLLQHSAKVNAKTKNGYTPLHQAAQQGHTHIINVLLQNNASPNELTVNGNTALAIARRLGYISVVDTLKVVTEEIMTTTTITEKHKMNVPETMNEVLDMS

The variants in one test derive from B1. The experiment in a line: fluorescence polarisation; parent: 7.3e+03 nM. In general terms: Polarisation of emitted light reports the rotation of a fluorescent probe.
As for chain 2 R10E, chain 2 R13E, the Kd (commonly the constant that tells how readily two partners part at equilibrium) worked out at 43.8 µM.

In a further test the parent is B2. The experiment in a line: ITC; parent: 2.7e+03 nM. On the technique in general: ITC needs no label: the signal is the heat of the interaction.
As for chain 2 I240Q, chain 2 L273Q, the Kd was determined as 8.5 µM.

Another test covers variants of B2. Description: ITC; parent: 2.7e+03 nM. The source holds these as a separate data set.
With chain 1 Y22A, the Kd was 16 µM.

The variants in the next test derive from B3. Description: ITC; parent: 360 nM.
For chain 1 N7K, the Kd turned out to be 2.7 µM.

With chain 1 M12Q, the Kd is 4.4 µM.

Regarding chain 1 L16Q, the Kd stood at 3.9 µM.

In a further test the parent is B3. Description: ITC; parent: 360 nM. This is another data set of the same source.
Consider chain 2 N568A, for which the Kd amounted to 2.4 µM.

The variants in a further test derive from B4. Description: ITC; parent: 1.6e+03 nM.
chain 2 F104Q, chain 2 F137Q: the Kd is 2.6 µM.

As to chain 2 I240Q, chain 2 L273Q, the Kd was 3.9 µM.
